From paper PMC3695229 (2013)
* marks the point of attachment. Biotin = O=C1N[C@H]2[C@H](CS[C@H]2CCCCC(=O)*)N1

T1: TGF-β2 (Homo sapiens, UniProt P61812)
T1 chain: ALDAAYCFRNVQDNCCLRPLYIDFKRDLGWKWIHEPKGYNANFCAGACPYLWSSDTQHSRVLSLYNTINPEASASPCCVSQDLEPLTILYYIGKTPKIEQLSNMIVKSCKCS


Target: T1, TGF-β2
Assay: SPR
MIWTMMQNKKTFTKP [P1-mZP ZP-C peptide] gave a Kd of 0.008 µM. Biotin-DASIIWAMMQNKKTFTK-NH2 [P5-hZP 734-750] showed a Kd of roughly 0.35 µM. Biotin-DATMIWTMMQNKKTFTK-NH2 [P4-mZP 732-748] was tested, and the Kd was roughly 0.19 µM.
